B1: library; numbered along this chain (parent)
chain: MRKPRAAVGSGHRKQAASQEGRQKHAKNNSQAKPSACDGLARQPEEVVLQASVSSYHLFRDVAEVTAFRGSLLSWYDQEKRDLPWRRRAEDEMDLDRRAYAVWVSEVMLQQTQVATVINYYTGWMQKWPTLQDLASASLEEVNQLWAGLGYYSRGRRLQEGARKVVEELGGHMPRTAETLQQLLPGVGRYTAGAIASIAFGQATGVVDGNVARVLCRVRAIGADPSSTLVSQQLWGLAQQLVDPARPGDFNQAAMELGATVCTPQRPLCSQCPVESLCRARQRVEQEQLLASGSLSGSPDVEECAPNTGQCHLCLPPSEPWDQTLGVVNFPRKASRKPPREESSATCVLEQPGALGAQILLVQRPNSGLLAGLWEFPSVTWEPSEQLQRKALLQELQRWAGPLPATHLRHLGEVVHTFSHIKLTYQVYGLALEGQTPVTTVPPGARWLTQEEFHTAAVSTAMKKVFRVYQGQQPGTCMGSKRSQVSSPCSRKKPRMGQQVLDNFFRSHISTDAHSLNSAAQ

Variants of: B1
Test: 8OG:A repair function score (normalized; synonymous = 0, nonsense = -1) (normalized log-likelihood score); higher = more repair activity (WT-like)
Details: with 8OG:A DNA repair reporter (GFP) in HEK-293 MUTYH KO cells
Method in brief: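 Per-tile Rosace fitness scores were converted to a normalized repair function score anchored on synonymous and nonsense distributions. That scale puts synonymous medians at 0 and nonsense medians at -1. Variants with starting counts under 300 counts per million were discarded. Input came from sorting viable mCherry+ MUTYH knockout HEK-293 cells, carrying lentiviral MUTYH cDNA NNN codon-scan libraries in 10 pg/ml doxycycline and an 8OG:A GFP repair reporter, into GFP+ and GFP− bins at 72 h, three replicates per tile, followed by tile amplicon sequencing.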
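Further: cells sorted at 72 h after reporter transfection.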

Variant	8OG:A repair function score
MRKPRAAVGSGHRKQAASQEGRQKHAKNNSQAKPSACDGLARQPEEVVLQASVSSYHLFRDVAEVTAFRGSLLSWYDQEKRDLPWRRRAEDEMDLDRRAYAVWVSEVMLQQTQVATVINYYTGWMQKWPTLQDLASASLEEVNQLWAGLGYYSRGRRLQEGARKVVEELGGHMPRTAETLQQLLPGVGRYTAGAIASIAFGQATGVVDGNVARVLCRVRAIGADPSSTLVSQQLWGLAQQLVDPARPGDFNQAAMELGATVCTPQRPLCSQCPVESLCRARQRVEQEQLLASGSLSGSPDVEECAPNTGQCHLCLPPSEPWDQTLGVVNFPRKASRKPPREESSATCVLEQPGALGAQILLVQRPNSGLLAGLWEFPSVTWEPSEQLQRKALLQELQRWAGPLPATHLRHLGEVVHTFSHIKLTYQVYGLALEGQTPVTTVPPGARWLTQEEFHTAAVSTAMKLVFRVYQGQQPGTCMGSKRSQVSSPCSRKKPRMGQQVLDNFFRSHISTDAHSLNSAAQ [K464L]	-0.298
MRKPRAAVGSGHRKQAASQEGRQKHAKNNSQAKPSACDGLARQPEEVVLQASVSSYHLFRDVAEVTAFRGSLLSWYDQEKRDLPWRRRAEDEMDLDRRAYAVWVSEVMLQQTQVATVINYYTGWMQKWPTLQDLASASLEEVNQLWAGLGYYSRGRRLQEGARKVVEELGGHMPRTAETLQQLLPGVGRYTAGAIASIAFGQATGVVDGNVARVLCRVRAIGADPSSTLVSQQLWGLAQQLVDPARPGDFNQAAMELGATVCTPQRPLCSQCPVESLCRARQRVEQEQLLASGSLSGSPDVEECAPNTGQCHLCLPPSEPWDQTLGVVNFPRKASRKPPREESSATCVLEQPGALGAQILLVQRPNSGLLAGLWEFPSVTWEPSEQLQRKALLQELQRWAGPLPATHLRHLGEVVHTFSHIKLTYQVYGLALEGQTPVTTVPPGARWLTQEEFHTAAVSTAMKPVFRVYQGQQPGTCMGSKRSQVSSPCSRKKPRMGQQVLDNFFRSHISTDAHSLNSAAQ [K464P]	-0.968
MRKPRAAVGSGHRKQAASQEGRQKHAKNNSQAKPSACDGLARQPEEVVLQASVSSYHLFRDVAEVTAFRGSLLSWYDQEKRDLPWRRRAEDEMDLDRRAYAVWVSEVMLQQTQVATVINYYTGWMQKWPTLQDLASASLEEVNQLWAGLGYYSRGRRLQEGARKVVEELGGHMPRTAETLQQLLPGVGRYTAGAIASIAFGQATGVVDGNVARVLCRVRAIGADPSSTLVSQQLWGLAQQLVDPARPGDFNQAAMELGATVCTPQRPLCSQCPVESLCRARQRVEQEQLLASGSLSGSPDVEECAPNTGQCHLCLPPSEPWDQTLGVVNFPRKASRKPPREESSATCVLEQPGALGAQILLVQRPNSGLLAGLWEFPSVTWEPSEQLQRKALLQELQRWAGPLPATHLRHLGEVVHTFSHIKLTYQVYGLALEGQTPVTTVPPGARWLTQEEFHTAAVSTAMKQVFRVYQGQQPGTCMGSKRSQVSSPCSRKKPRMGQQVLDNFFRSHISTDAHSLNSAAQ [K464Q]	-0.245
MRKPRAAVGSGHRKQAASQEGRQKHAKNNSQAKPSACDGLARQPEEVVLQASVSSYHLFRDVAEVTAFRGSLLSWYDQEKRDLPWRRRAEDEMDLDRRAYAVWVSEVMLQQTQVATVINYYTGWMQKWPTLQDLASASLEEVNQLWAGLGYYSRGRRLQEGARKVVEELGGHMPRTAETLQQLLPGVGRYTAGAIASIAFGQATGVVDGNVARVLCRVRAIGADPSSTLVSQQLWGLAQQLVDPARPGDFNQAAMELGATVCTPQRPLCSQCPVESLCRARQRVEQEQLLASGSLSGSPDVEECAPNTGQCHLCLPPSEPWDQTLGVVNFPRKASRKPPREESSATCVLEQPGALGAQILLVQRPNSGLLAGLWEFPSVTWEPSEQLQRKALLQELQRWAGPLPATHLRHLGEVVHTFSHIKLTYQVYGLALEGQTPVTTVPPGARWLTQEEFHTAAVSTAMKMVFRVYQGQQPGTCMGSKRSQVSSPCSRKKPRMGQQVLDNFFRSHISTDAHSLNSAAQ [K464M]	-0.266
MRKPRAAVGSGHRKQAASQEGRQKHAKNNSQAKPSACDGLARQPEEVVLQASVSSYHLFRDVAEVTAFRGSLLSWYDQEKRDLPWRRRAEDEMDLDRRAYAVWVSEVMLQQTQVATVINYYTGWMQKWPTLQDLASASLEEVNQLWAGLGYYSRGRRLQEGARKVVEELGGHMPRTAETLQQLLPGVGRYTAGAIASIAFGQATGVVDGNVARVLCRVRAIGADPSSTLVSQQLWGLAQQLVDPARPGDFNQAAMELGATVCTPQRPLCSQCPVESLCRARQRVEQEQLLASGSLSGSPDVEECAPNTGQCHLCLPPSEPWDQTLGVVNFPRKASRKPPREESSATCVLEQPGALGAQILLVQRPNSGLLAGLWEFPSVTWEPSEQLQRKALLQELQRWAGPLPATHLRHLGEVVHTFSHIKLTYQVYGLALEGQTPVTTVPPGARWLTQEEFHTAAVSTAMKRVFRVYQGQQPGTCMGSKRSQVSSPCSRKKPRMGQQVLDNFFRSHISTDAHSLNSAAQ [K464R]	-0.123
MRKPRAAVGSGHRKQAASQEGRQKHAKNNSQAKPSACDGLARQPEEVVLQASVSSYHLFRDVAEVTAFRGSLLSWYDQEKRDLPWRRRAEDEMDLDRRAYAVWVSEVMLQQTQVATVINYYTGWMQKWPTLQDLASASLEEVNQLWAGLGYYSRGRRLQEGARKVVEELGGHMPRTAETLQQLLPGVGRYTAGAIASIAFGQATGVVDGNVARVLCRVRAIGADPSSTLVSQQLWGLAQQLVDPARPGDFNQAAMELGATVCTPQRPLCSQCPVESLCRARQRVEQEQLLASGSLSGSPDVEECAPNTGQCHLCLPPSEPWDQTLGVVNFPRKASRKPPREESSATCVLEQPGALGAQILLVQRPNSGLLAGLWEFPSVTWEPSEQLQRKALLQELQRWAGPLPATHLRHLGEVVHTFSHIKLTYQVYGLALEGQTPVTTVPPGARWLTQEEFHTAAVSTAMKNVFRVYQGQQPGTCMGSKRSQVSSPCSRKKPRMGQQVLDNFFRSHISTDAHSLNSAAQ [K464N]	-0.146

From the supplement of paper PMC11908140
